According to patent publication US5620849:

Target: E1/E2 complex (Bovine papillomavirus type 1) (UniProt P03116+P03122)
Assay: footprint
Conditions: E1 plus 100 ng E2: equivalent protection of E1 site at 10-fold lower E1 than without E2

Chain of UniProt P03116 (P03116 whole entry, chain 1 of 2): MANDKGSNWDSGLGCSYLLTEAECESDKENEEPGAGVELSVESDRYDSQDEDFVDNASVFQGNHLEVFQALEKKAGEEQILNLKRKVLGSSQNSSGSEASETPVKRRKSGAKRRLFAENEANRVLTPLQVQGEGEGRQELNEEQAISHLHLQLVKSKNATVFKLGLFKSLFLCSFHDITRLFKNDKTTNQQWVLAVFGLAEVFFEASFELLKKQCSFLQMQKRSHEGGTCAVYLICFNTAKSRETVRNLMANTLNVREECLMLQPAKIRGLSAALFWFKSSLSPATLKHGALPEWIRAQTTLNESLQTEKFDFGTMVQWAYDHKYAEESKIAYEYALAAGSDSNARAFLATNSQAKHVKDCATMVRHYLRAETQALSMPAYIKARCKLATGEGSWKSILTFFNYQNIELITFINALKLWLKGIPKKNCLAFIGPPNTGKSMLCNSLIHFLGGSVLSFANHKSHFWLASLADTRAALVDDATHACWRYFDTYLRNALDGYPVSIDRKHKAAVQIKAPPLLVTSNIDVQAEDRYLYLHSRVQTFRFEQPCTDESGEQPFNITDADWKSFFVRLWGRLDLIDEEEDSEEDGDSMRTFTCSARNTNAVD
Chain of UniProt P03116 (P03122 whole entry, chain 2 of 2): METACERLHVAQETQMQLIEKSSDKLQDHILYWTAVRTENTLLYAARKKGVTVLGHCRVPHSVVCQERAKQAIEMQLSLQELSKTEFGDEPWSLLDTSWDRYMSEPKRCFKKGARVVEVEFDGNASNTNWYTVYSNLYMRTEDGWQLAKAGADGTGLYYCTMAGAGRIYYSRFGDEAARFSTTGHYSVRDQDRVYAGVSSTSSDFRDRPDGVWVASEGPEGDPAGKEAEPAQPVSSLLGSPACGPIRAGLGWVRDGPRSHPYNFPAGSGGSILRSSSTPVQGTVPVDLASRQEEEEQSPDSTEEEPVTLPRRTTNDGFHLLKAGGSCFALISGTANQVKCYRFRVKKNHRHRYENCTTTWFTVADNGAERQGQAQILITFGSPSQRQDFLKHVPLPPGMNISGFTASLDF

In the case of “ACCGAAACCGGTAAGTAAAGACTATGTATTTTTTCCCAGTGAATANBBRBBRBBNNCNNBNNBCACACCATCACCGTT (double strand) [pKSO BPV origin fragment (7805-100)]”, the binding signal is reported as 10 fold.
